Assays:
[1] = tested on: T1, peptide construct comprising the Abl substrate GEAIYAAPFA (SEQ ID NO:13) with C-terminal FLAG tag
T1 sequence: GEAIYAAPFADYKDDDDK

[2] = tested on: 1,557 peptides that contain no tyrosine residues (3,243-plex peptide construct set)
[3] = tested on: peptide construct with HCV polyprotein 8-mer EAIYQCCD (SEQ ID NO:12)
[4] = tested on: peptide construct with HCV polyprotein 8-mer MEECSQHL (SEQ ID NO:8)
[5] = tested on: peptide construct with HCV polyprotein 8-mer TTPCSGSW (SEQ ID NO:9)
[6] = tested on: peptide construct with HCV polyprotein 8-mer EVVTSTWV (SEQ ID NO:11)
[7] = tested on: peptide construct with HCV polyprotein 8-mer VVCCSMSY (SEQ ID NO:10)
[8] = tested on: T2, peptide construct with Cortactin 10-mer QVSSAYQKTV (SEQ ID NO:20)
T2 sequence: QVSSAYQKTV

[9] = tested on: T3, peptide construct with Cortactin 10-mer GHYPAEDSTY (SEQ ID NO:17)
T3 sequence: GHYPAEDSTY

[10] = tested on: T4, peptide construct with Cortactin 10-mer GLAYATEAVY (SEQ ID NO:16)
T4 sequence: GLAYATEAVY

[11] = tested on: T5, peptide construct with Cortactin 10-mer VYSMEAADYR (SEQ ID NO:19)
T5 sequence: VYSMEAADYR

[12] = tested on: T6, peptide construct with Cortactin 10-mer GTEPEPVYSM (SEQ ID NO:18)
T6 sequence: GTEPEPVYSM

[13] = tested on: T7, peptide construct comprising the thrombin substrate GLVPRGSAG (SEQ ID NO:1)
T7 sequence: CAGLVPRGSAG

[14] = tested on: T8, peptide construct comprising the enterokinase substrate AGDDDDKAG (SEQ ID NO:2)
T8 sequence: CAAGDDDDKAG

[15] = tested on: peptides containing thrombin cleavage sites (whole yeast peptide construct set from S. cerevisiae genomic DNA)

ABL1 tyrosine kinase
relative qPCR signal {2^[Ct(untreated)-Ct(test)]} after biotin labelling of phosphotyrosine and capture on streptavidin beads [1]: The qPCR signal was ~2-fold higher for the kinase-treated preparation, relative to the untreated preparation | relative qPCR signal {2^[Ct(untreated)-Ct(test)]} after capture on anti-phosphotyrosine antibody beads [1]: The qPCR signal was significantly higher (~120-fold) for the kinase-treated preparation, relative to the untreated preparation | phosphorylation, capture on anti-phosphotyrosine beads and sequencing counts [2]: None of the 1557 negative peptides were detected in the assays

NS3 (hepacivirin) protease of hepatitis C virus
protease cleavage, release from beads and sequencing counts [3]: Peptide EAIYQCCD (SEQ ID NO:12) represents a peptide substrate that does not fit the known HCV NS3 protease consensus | protease cleavage, release from beads and sequencing counts (SEQ ID NO 26): map of peptide cleavage sites identified by assaying overlapping 8-mer peptides of HCV polyprotein (SEQ ID NOS:22, 23, 24, 25, 8, 26, 9, 27, 10, 28, 12, and 29 | protease cleavage, release from beads and sequencing counts (SEQ ID NO 28): map of peptide cleavage sites identified by assaying overlapping 8-mer peptides of HCV polyprotein (SEQ ID NOS:22, 23, 24, 25, 8, 26, 9, 27, 10, 28, 12, and 29 | protease cleavage, release from beads and sequencing counts (SEQ ID NO 23): map of peptide cleavage sites identified by assaying overlapping 8-mer peptides of HCV polyprotein (SEQ ID NOS:22, 23, 24, 25, 8, 26, 9, 27, 10, 28, 12, and 29 | protease cleavage, release from beads and sequencing counts [4]: cleavage of 3 of the 4 known sites published in the MEROPS database was detected | protease cleavage, release from beads and sequencing counts (SEQ ID NO 29): map of peptide cleavage sites identified by assaying overlapping 8-mer peptides of HCV polyprotein (SEQ ID NOS:22, 23, 24, 25, 8, 26, 9, 27, 10, 28, 12, and 29 | protease cleavage, release from beads and sequencing counts (SEQ ID NO 24): map of peptide cleavage sites identified by assaying overlapping 8-mer peptides of HCV polyprotein (SEQ ID NOS:22, 23, 24, 25, 8, 26, 9, 27, 10, 28, 12, and 29 | protease cleavage, release from beads and sequencing counts [5]: cleavage of 3 of the 4 known sites published in the MEROPS database was detected | protease cleavage, release from beads and sequencing counts [6]: the undetected site, EVVTSTWV (SEQ ID NO:11), is known to be cleaved only in cis | protease cleavage, release from beads and sequencing counts [7]: cleavage of 3 of the 4 known sites published in the MEROPS database was detected | protease cleavage, release from beads and sequencing counts (SEQ ID NO 27): map of peptide cleavage sites identified by assaying overlapping 8-mer peptides of HCV polyprotein (SEQ ID NOS:22, 23, 24, 25, 8, 26, 9, 27, 10, 28, 12, and 29 | protease cleavage, release from beads and sequencing counts (SEQ ID NO 25): map of peptide cleavage sites identified by assaying overlapping 8-mer peptides of HCV polyprotein (SEQ ID NOS:22, 23, 24, 25, 8, 26, 9, 27, 10, 28, 12, and 29 | protease cleavage, release from beads and sequencing counts (SEQ ID NO 22): map of peptide cleavage sites identified by assaying overlapping 8-mer peptides of HCV polyprotein (SEQ ID NOS:22, 23, 24, 25, 8, 26, 9, 27, 10, 28, 12, and 29

SRC tyrosine kinase
phosphorylation, capture on anti-phosphotyrosine beads and sequencing counts [8]: the third known site that was not detected (QVSSAYQKTV (SEQ ID NO: 20)) | phosphorylation, capture on anti-phosphotyrosine beads and sequencing counts [9]: Two of the three Src phosphorylation sites (GLAYATEAVY (SEQ ID NO: 16) and GHYPAEDSTY (SEQ ID NO: 17)) were detected | phosphorylation, capture on anti-phosphotyrosine beads and sequencing counts [10]: Two of the three Src phosphorylation sites (GLAYATEAVY (SEQ ID NO: 16) and GHYPAEDSTY (SEQ ID NO: 17)) were detected | phosphorylation, capture on anti-phosphotyrosine beads and sequencing counts [11]: Two more sites were identified (GTEPEPVYSM (SEQ ID NO: 18) and VYSMEAADYR (SEQ ID NO: 19)) | phosphorylation, capture on anti-phosphotyrosine beads and sequencing counts [12]: Two more sites were identified (GTEPEPVYSM (SEQ ID NO: 18) and VYSMEAADYR (SEQ ID NO: 19)) | phosphorylation, capture on anti-phosphotyrosine beads and sequencing counts [2]: None of the 1557 negative peptides were detected in the assays

enterokinase
protease cleavage, PAGE of reaction products [13]: neither the control nor the peptide construct comprising the thrombin substrate were cleaved | protease cleavage, PAGE of reaction products [14]: When treated with enterokinase, the peptide construct comprising the enterokinase substrate was cleaved

thrombin
protease cleavage, PAGE of reaction products [13]: then treated with thrombin, the peptide construct comprising the thrombin substrate was cleaved | protease cleavage, sequence analysis of released constructs [15]: Sequence analysis demonstrated a significant enrichment of peptides containing thrombin cleavage sites | protease cleavage, PAGE of reaction products [14]: neither the control nor the peptide construct comprising the enterokinase substrate was cleaved
